Columns and labels:
[1] = tested on: T1, Spo0A (Paenibacillus polymyxa SC2), ORF:894240d5; experiment: EMSA; settings: EMSA: Beyotime chemiluminescent EMSA kit buffer (composition and pH not stated), 10 uL, 20 min at room temperature, native PAGE in 0.5x TBE, 70 V for 70 min …
T1 sequence: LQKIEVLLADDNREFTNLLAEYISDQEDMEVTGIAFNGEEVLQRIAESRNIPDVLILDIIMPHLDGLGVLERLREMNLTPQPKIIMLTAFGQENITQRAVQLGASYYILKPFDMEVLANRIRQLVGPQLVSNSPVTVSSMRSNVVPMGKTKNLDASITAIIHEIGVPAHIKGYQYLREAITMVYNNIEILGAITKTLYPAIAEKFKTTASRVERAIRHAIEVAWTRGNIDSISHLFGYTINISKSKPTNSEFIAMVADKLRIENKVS

[2] = tested on: T2, AbrB3 (Paenibacillus polymyxa SC2), ORF:7049d318; experiment: EMSA; settings: EMSA: Beyotime chemiluminescent EMSA kit buffer (composition and pH not stated), 10 uL, 20 min at room temperature, native PAGE in 0.5x TBE, 70 V for 70 min …
T2 sequence: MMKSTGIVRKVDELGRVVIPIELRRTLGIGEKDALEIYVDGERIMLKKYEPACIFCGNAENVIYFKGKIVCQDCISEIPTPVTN

Sequence | binding [1] | binding [2]
TGTACTTCCTCCTTATTGAGTGTTATTCCATTGGGACATCTGTTTGCATTAAATAAATATTTCTTGTCGGAGTATATGATTTCGACATCGAATTATGAATTCCTTCTGTCGAAAATTATTTTTATTTATTTTTTTTATTAATTCAATTATAATTGAATTTTTATCTTGCAATTCTGAGTTATTCCCCTGCTTTTCGACAAAAAAATCTTAAGGCCA (double strand) [Pspo0A] | binds | –
ATGTAATTCACAGCCCCTTAACGTATATTACTAAAAATTTCTTTGCCAACTAGAATATTGATTCTGAATATATATCGGCAATCCCCTATAATTCCTCAACACGTTTTCCACCATTAAACAAACATATTATGGGAATTACTTGTATACTTTTCAACAGTTTACTTAATATATGCGATTGCTTCTCTAAGCCTATTCTTTTTTATCATAATTATTTAGTATTATAAGGATATAAAAAAGGAGGTTATCAT (double strand) [Pabh] | binds | binds

Source: publication PMC10782996
